Results: paper PMC8274477 (Frontiers in Cell and Developmental Biology, 2021)
Each block holds one binder with its values, some of them ahead of it.

Target: T1, OTULIN (OTU deubiquitinase with linear linkage specificity, FAM105B), His-tagged, biotin-labelled (human, UniProt Q96BN8 1-352, biotin (label; sites not stated))
T1 construct: OTULIN (FAM105B), cDNA in pET28a; also called HIS-OTULIN; source: E. coli BL21 (DE3), purified (His-tag Purification Resin), labelled with biotin; not shown: His6, N-terminal, kept
Experiment: peptide or protein array; HuProt human proteome microarray; 5 ug/5 ml biotin-labelled LUBAC or OTULIN in solution, 1 h at room temperature; Cy5-streptavidin, scanned at 635 nm; BSA as negative control; hits: Z-score >= 3 and I_(Mean_Ratio) >= 1.4
Conditions: both partners purified

- binding result: binds
B10: GCLM (natural protein, human, UniProt P48507 1-274, looked up)
chain: MGTDSRAAKALLARARTLHLQTGNLLNWGRLRKKCPSTHSEELHDCIQKTLNEWSSQINPDLVREFPDVLECTVSHAVEKINPDEREEMKVSAKLFIVESNSSSSTRSAVDMACSVLGVAQLDSVIIASPPIEDGVNLSLEHLQPYWEELENLVQSKKIVAIGTSDLDKTQLEQLYQWAQVKPNSNQVNLASCCVMPPDLTAFAKQFDIQLLTHNDPKELLSEASFQEALQESIPDIQAHEWVPLWLLRYSVIVKSRGIIKSKGYILQAKRRGS
notes: GCLM; protein on the human proteome microarray; source: spotted on the HuProt human proteome microarray

- binding result: binds
B11: CSRP3 (natural protein, human, UniProt P50461 1-194, looked up)
chain: MPNWGGGAKCGACEKTVYHAEEIQCNGRSFHKTCFHCMACRKALDSTTVAAHESEIYCKVCYGRRYGPKGIGYGQGAGCLSTDTGEHLGLQFQQSPKPARSVTTSNPSKFTAKFGESEKCPRCGKSVYAAEKVMGGGKPWHKTCFRCAICGKSLESTNVTDKDGELYCKVCYAKNFGPTGIGFGGLTQQVEKKE
notes: CSRP3; protein on the human proteome microarray; source: spotted on the HuProt human proteome microarray

- binding result: binds
B12: GBGT1 (natural protein, human, UniProt Q8N5D6 1-347, looked up)
chain: MHRRRLALGLGFCLLAGTSLSVLWVYLENWLPVSYVPYYLPCPEIFNMKLHYKREKPLQPVVWSQYPQPKLLEHRPTQLLTLTPWLAPIVSEGTFNPELLQHIYQPLNLTIGVTVFAVGKYTHFIQSFLESAEEFFMRGYRVHYYIFTDNPAAVPGVPLGPHRLLSSIPIQGHSHWEETSMRRMETISQHIAKRAHREVDYLFCLDVDMVFRNPWGPETLGDLVAAIHPSYYAVPRQQFPYERRRVSTAFVADSEGDFYYGGAVFGGQVARVYEFTRGCHMAILADKANGIMAAWREESHLNRHFISNKPSKVLSPEYLWDDRKPQPPSLKLIRFSTLDKDISCLRS
notes: GBGT1; protein on the human proteome microarray; source: spotted on the HuProt human proteome microarray

- binding result: binds
B13: CSRP1 (natural protein, human, UniProt P21291 1-193, looked up)
chain: MPNWGGGKKCGVCQKTVYFAEEVQCEGNSFHKSCFLCMVCKKNLDSTTVAVHGEEIYCKSCYGKKYGPKGYGYGQGAGTLSTDKGESLGIKHEEAPGHRPTTNPNASKFAQKIGGSERCPRCSQAVYAAEKVIGAGKSWHKACFRCAKCGKGLESTTLADKDGEIYCKGCYAKNFGPKGFGFGQGAGALVHSE
notes: CSRP1; protein on the human proteome microarray; source: spotted on the HuProt human proteome microarray

- binding result: binds
B14: CUTA (natural protein, human, UniProt O60888 33-179, looked up)
chain: RLLLLPRVLLTMASGSPPTQPSPASDSGSGYVPGSVSAAFVTCPNEKVAKEIARAVVEKRLAACVNLIPQITSIYEWKGKIEEDSEVLMMIKTQSSLVPALTDFVRSVHPYEVAEVIALPVEQGNFPYLQWVRQVTESVSDSITVLP
notes: CUTA; protein on the human proteome microarray; source: spotted on the HuProt human proteome microarray

- binding result: binds
B15: CYB5R1 (natural protein, human, UniProt Q9UHQ9 1-305, looked up)
chain: MGIQTSPVLLASLGVGLVTLLGLAVGSYLVRRSRRPQVTLLDPNEKYLLRLLDKTTVSHNTKRFRFALPTAHHTLGLPVGKHIYLSTRIDGSLVIRPYTPVTSDEDQGYVDLVIKVYLKGVHPKFPEGGKMSQYLDSLKVGDVVEFRGPSGLLTYTGKGHFNIQPNKKSPPEPRVAKKLGMIAGGTGITPMLQLIRAILKVPEDPTQCFLLFANQTEKDIILREDLEELQARYPNRFKLWFTLDHPPKDWAYSKGFVTADMIREHLPAPGDDVLVLLCGPPPMVQLACHPNLDKLGYSQKMRFTY
notes: CYB5R1; protein on the human proteome microarray; source: spotted on the HuProt human proteome microarray

- binding result: binds
B16: GAPDH (natural protein)
chain: not shown
notes: GAPDH; protein on the human proteome microarray; source: spotted on the HuProt human proteome microarray

- binding result: binds
B17: CDCA3 (natural protein, human, UniProt Q99618 1-268, looked up)
chain: MGSAKSVPVTPARPPPHNKHLARVADPRSPSAGILRTPIQVESSPQPGLPAGEQLEGLKHAQDSDPRSPTLGIARTPMKTSSGDPPSPLVKQLSEVFETEDSKSNLPPEPVLPPEAPLSSELDLPLGTQLSVEEQMPPWNQTEFPSKQVFSKEEARQPTETPVASQSSDKPSRDPETPRSSGSMRNRWKPNSSKVLGRSPLTILQDDNSPGTLTLRQGKRPSPLSENVSELKEGAILGTGRLLKTGGRAWEQGQDHDKENQHFPLVES
notes: CDCA3; protein on the human proteome microarray; source: spotted on the HuProt human proteome microarray

- binding result: binds
B18: CRYZ (natural protein, human, UniProt Q08257 1-329, looked up)
chain: MATGQKLMRAVRVFEFGGPEVLKLRSDIAVPIPKDHQVLIKVHACGVNPVETYIRSGTYSRKPLLPYTPGSDVAGVIEAVGDNASAFKKGDRVFTSSTISGGYAEYALAADHTVYKLPEKLDFKQGAAIGIPYFTAYRALIHSACVKAGESVLVHGASGGVGLAACQIARAYGLKILGTAGTEEGQKIVLQNGAHEVFNHREVNYIDKIKKYVGEKGIDIIIEMLANVNLSKDLSLLSHGGRVIVVGSRGTIEINPRDTMAKESSIIGVTLFSSTKEEFQQYAAALQAGMEIGWLKPVIGSQYPLEKVAEAHENIIHGSGATGKMILLL
notes: CRYZ; protein on the human proteome microarray; source: spotted on the HuProt human proteome microarray

- binding result: binds
B19: C9orf9 (natural protein, human, UniProt Q96E40 1-222, looked up)
chain: MNEVKESLRSIEQKYKLFQQQQLTFTAALEHCRENAHDKIRPISSIGQVQSYMEHYCNSSTDRRVLLMFLDICSELNKLCQHFEAVHSGTPVTNNLLEKCKTLVSQSNDLSSLRAKYPHDVVNHLSCDEARNHYGGVVSLIPLILDLMKEWIAHSEKLPRKVLQHVSEPQAHQESTRGAARPAQAIGTQPRATKHKCRQLTKASLKPRGCSKPPWRPPGGKL
notes: C9orf9; protein on the human proteome microarray; source: spotted on the HuProt human proteome microarray

- binding result: binds
B20: CCNB1IP1 (natural protein, human, UniProt Q9NPC3 1-277, looked up)
chain: MSLCEDMLLCNYRKCRIKLSGYAWVTACSHIFCDQHGSGEFSRSPAICPACNSTLSGKLDIVRTELSPSEEYKAMVLAGLRPEIVLDISSRALAFWTYQVHQERLYQEYNFSKAEGHLKQMEKIYTQQIQSKDVELTSMKGEVTSMKKVLEEYKKKFSDISEKLMERNRQYQKLQGLYDSLRLRNITIANHEGTLEPSMIAQSGVLGFPLGNNSKFPLDNTPVRNRGDGDGDFQFRPFFAGSPTAPEPSNSFFSFVSPSRELEQQQVSSRAFKVKRI
notes: CCNB1IP1; protein on the human proteome microarray; source: spotted on the HuProt human proteome microarray

The next lines start with the binder.

B1: FAM49B (natural protein, human, UniProt Q9NUQ9 1-324, looked up)
chain: MGNLLKVLTCTDLEQGPNFFLDFENAQPTESEKEIYNQVNVVLKDAEGILEDLQSYRGAGHEIREAIQHPADEKLQEKAWGAVVPLVGKLKKFYEFSQRLEAALRGLLGALTSTPYSPTQHLEREQALAKQFAEILHFTLRFDELKMTNPAIQNDFSYYRRTLSRMRINNVPAEGENEVNNELANRMSLFYAEATPMLKTLSDATTKFVSENKNLPIENTTDCLSTMASVCRVMLETPEYRSRFTNEETVSFCLRVMVGVIILYDHVHPVGAFAKTSKIDMKGCIKVLKDQPPNSVEGLLNALRYTTKHLNDETTSKQIKSMLQ
notes: FAM49B; protein on the human proteome microarray; source: spotted on the HuProt human proteome microarray
- binding result: binds

B2: ISG20 (natural protein)
chain: not shown
notes: ISG20; protein on the human proteome microarray; source: spotted on the HuProt human proteome microarray
- binding result: binds

B3: DECR2 (natural protein, human, UniProt Q9NUI1 1-292, looked up)
chain: MAQPPPDVEGDDCLPAYRHLFCPDLLRDKVAFITGGGSGIGFRIAEIFMRHGCHTVIASRSLPRVLTAARKLAGATGRRCLPLSMDVRAPPAVMAAVDQALKEFGRIDILINCAAGNFLCPAGALSFNAFKTVMDIDTSGTFNVSRVLYEKFFRDHGGVIVNITATLGNRGQALQVHAGSAKAAVDAMTRHLAVEWGPQNIRVNSLAPGPISGTEGLRRLGGPQASLSTKVTASPLQRLGNKTEIAHSVLYLASPLASYVTGAVLVADGGAWLTFPNGVKGLPDFASFSAKL
notes: DECR2; protein on the human proteome microarray; source: spotted on the HuProt human proteome microarray
- binding result: binds

B4: GTF2B (natural protein, human, UniProt Q00403 1-316, looked up)
chain: MASTSRLDALPRVTCPNHPDAILVEDYRAGDMICPECGLVVGDRVIDVGSEWRTFSNDKATKDPSRVGDSQNPLLSDGDLSTMIGKGTGAASFDEFGNSKYQNRRTMSSSDRAMMNAFKEITTMADRINLPRNIVDRTNNLFKQVYEQKSLKGRANDAIASACLYIACRQEGVPRTFKEICAVSRISKKEIGRCFKLILKALETSVDLITTGDFMSRFCSNLCLPKQVQMAATHIARKAVELDLVPGRSPISVAAAAIYMASQASAEKRTQKEIGDIAGVADVTIRQSYRLIYPRAPDLFPTDFKFDTPVDKLPQL
notes: GTF2B; protein on the human proteome microarray; source: spotted on the HuProt human proteome microarray
- binding result: binds

B5: KHDRBS3 (natural protein, human, UniProt O75525 1-346, looked up)
chain: MEEKYLPELMAEKDSLDPSFTHALRLVNQEIEKFQKGEGKDEEKYIDVVINKNMKLGQKVLIPVKQFPKFNFVGKLLGPRGNSLKRLQEETLTKMSILGKGSMRDKAKEEELRKSGEAKYFHLNDDLHVLIEVFAPPAEAYARMGHALEEIKKFLIPDYNDEIRQAQLQELTYLNGGSENADVPVVRGKPTLRTRGVPAPAITRGRGGVTARPVGVVVPRGTPTPRGVLSTRGPVSRGRGLLTPRARGVPPTGYRPPPPPPTQETYGEYDYDDGYGTAYDEQSYDSYDNSYSTPAQSGADYYDYGHGLSEETYDSYGQEEWTNSRHKAPSARTAKGVYRDQPYGRY
notes: KHDRBS3; protein on the human proteome microarray; source: spotted on the HuProt human proteome microarray
- binding result: binds

B6: EIF4H (natural protein)
chain: not shown
notes: EIF4H; protein on the human proteome microarray; source: spotted on the HuProt human proteome microarray
- binding result: binds

B7: GSTZ1 (natural protein, human, UniProt O43708 1-216, looked up)
chain: MQAGKPILYSYFRSSCSWRVRIALALKGIDYKTVPINLIKDRGQQFSKDFQALNPMKQVPTLKIDGITIHQSLAIIEYLEEMRPTPRLLPQDPKKRASVRMISDLIAGGIQPLQNLSVLKQVGEEMQLTWAQNAITCGFNALEQILQSTAGIYCVGDEVTMADLCLVPQVANAERFKVDLTPYPTISSINKRLLVLEAFQVSHPCRQPDTPTELRA
notes: GSTZ1; protein on the human proteome microarray; source: spotted on the HuProt human proteome microarray
- binding result: binds

B8: HTATIP2 (natural protein, human, UniProt Q9BUP3 1-242, looked up)
chain: MAETEALSKLREDFRMQNKSVFILGASGETGRVLLKEILEQGLFSKVTLIGRRKLTFDEEAYKNVNQEVVDFEKLDDYASAFQGHDVGFCCLGTTRGKAGAEGFVRVDRDYVLKSAELAKAGGCKHFNLLSSKGADKSSNFLYLQVKGEVEAKVEELKFDRYSVFRPGVLLCDRQESRPGEWLVRKFFGSLPDSWASGHSVPVVTVVRAMLNNVVRPRDKQMELLENKAIHDLGKAHGSLKP
notes: HTATIP2; protein on the human proteome microarray; source: spotted on the HuProt human proteome microarray
- binding result: binds

B9: DNALI1 (natural protein, human, UniProt O14645 1-258, looked up)
chain: MIPPADSLLKYDTPVLVSRNTEKRSPKARLLKVSPQQPGPSGSAPQPPKTKLPSTPCVPDPTKQAEEILNAILPPREWVEDTQLWIQQVSSTPSTRMDVVHLQEQLDLKLQQRQARETGICPVRRELYSQCFDELIREVTINCAERGLLLLRVRDEIRMTIAAYQTLYESSVAFGMRKALQAEQGKSDMERKIAELETEKRDLERQVNEQKAKCEATEKRESERRQVEEKKHNEEIQFLKRTNQQLKAQLEGIIAPKK
notes: DNALI1; protein on the human proteome microarray; source: spotted on the HuProt human proteome microarray
- binding result: binds
